From patent EP1257648B2 (AMGEN INC., dated 2016) come the findings set out here.

Values joined by “and” are separate entries in the source; they are usually repeats but may differ in a detail not shown here. Identical values can stand only once.

The experiment has as its target T1, human OPGbp[143-317] (human, UniProt O14788 143-317).
T1 sequence (looked up): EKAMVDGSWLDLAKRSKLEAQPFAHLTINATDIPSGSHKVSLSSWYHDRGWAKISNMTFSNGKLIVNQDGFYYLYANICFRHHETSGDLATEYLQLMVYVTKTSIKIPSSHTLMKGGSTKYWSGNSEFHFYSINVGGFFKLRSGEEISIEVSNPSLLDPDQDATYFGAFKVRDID
As to the kind of experiment: cell-based or functional assay.

B1: Fab "AT" (Fab, V domains shown)
VH: QVQLVQSGAEVRKPGASVKVSCKASGYDFSNYAIHWVRQAPGQRLEWMGWINAGNGNTKFSQKFQGRITVTRDTAASTAYMELRSLRSEDTAVYYCARDSSNMVRGIIIAYYFDYWGQGTLVTVSS
VL: EIVMTQSPSSLSASVGDRVTITCRASQSISRYLNWYQLKPGKAPRLLIYGASSLQSGVPSRFSGSGSGAEFTLTISSLQPEDIATYYCQHTRAFGQGTKVEIKR
With B1, the “IC50, RAW cell assay (TRAP)” value was 15 µg/ml and 300 nM; the “IC50, murine bone marrow osteoclast formation assay (TRAP, pNPP)” value stood at 57.8 nM.

B2: "AT" antibody (antibody, V domains shown)
VH: QVQLVQSGAEVRKPGASVKVSCKASGYDFSNYAIHWVRQAPGQRLEWMGWINAGNGNTKFSQKFQGRITVTRDTAASTAYMELRSLRSEDTAVYYCARDSSNMVRGIIIAYYFDYWGQGTLVTVSS
VL: EIVMTQSPSSLSASVGDRVTITCRASQSISRYLNWYQLKPGKAPRLLIYGASSLQSGVPSRFSGSGSGAEFTLTISSLQPEDIATYYCQHTRAFGQGTKVEIKR
Regarding B2, the “IC50, RAW cell assay (TRAP)” value was 60.3 nM and 21.4 nM and 3 ug/ml and 9 ug/ml and 3.2 ug/ml and 20.1 nM; the “IC50, bone marrow assay (TRAP)” value is 2.35 µg/ml and 14.4 nM; the “IC50, murine bone marrow assay (TRAP)” value is 2.15 ug/ml and 14.4 nM and 1.85 ug/ml and 12.5 nM.

B3: human OPG [22-194]-Fc (Fc fusion, UniProt O00300 22-194, looked up, not shown: a dimerising Fc or GST)
chain: ETFPPKYLHYDEETSHQLLCDKCPPGTYLKQHCTAKWKTVCAPCPDHYYTDSWHTSDECLYCSPVCKELQYVKQECNRTHNRVCECKEGRYLEIEFCLKHRSCPPGFGVVQAGTPERNTVCKRCPDGFFSNETSSKAPCRKHTNCSVFGLLLTQKGNATHDNICSGNSESTQK
In the case of B3, the “IC50, RAW cell assay (TRAP), positive control” value was 33 ng/mL.
